Test results published in US20200239888.
Read-outs that look alike come from different tables or passages of the source.

Tests used:
[1] = biological target: NanoLuc luciferase control (NLUC-HA) (UniProt Q9GV45); details: full PS, nanoBRET, control protein
[2] = biological target: FUS(375-526)[P525L][R/S in 375-422]-NLUC-HA P525L; all Arg to Ser in 375-422 (UniProt P35637); details: full PS, nanoBRET
[3] = biological target: FUS(375-526)[P525L][R/S in 454-526]-NLUC-HA P525L; all Arg to Ser in 454-526 (UniProt P35637); details: full PS, nanoBRET
[4] = biological target: FUS(1-526)[P525L][R/S in 375-422 and 454-526]-NLUC-FLAG P525L; all Arg to Ser in 375-422 and 454-526 (UniProt P35637); details: nanoBRET
[5] = tested on: HA-NES-β23-NLUC (artificial); details: full PS, nanoBRET, control fusion
[6] = biological target: HA-NES-β23-NLUC-FUS(375-526)[P525L][R/S in 375-422 and 454-526] P525L; all Arg to Ser in 375-422 and 454-526 (UniProt P35637); details: full PS, nanoBRET
[7] = cEt at 1-5 and 16-20, DNA at 6-15, all C 5mC
[8] = 2'-MOE at 1-5 and 16-20, DNA at 6-15, all C 5mC
[9] = 2'-F at 1-5 and 16-20, DNA at 6-15, 5mC at C8, C9, C11

CTGCTAGCCTCTGGATTTGA [766635 (cEt 5-10-5 gapmer)]
Kd [1, 7]: > 1000 nM
Kd [2, 7]: 14.3 nM
Kd [3, 7]: 290 nM
Kd ([4]; cEt at 1-5 and 16-20, DNA at 6-15, full PS, all C 5mC): 3.7 nM
Kd [5, 7]: 950 nM
Kd [6, 7]: > 1000 nM

CUGCUAGCCUCUGGAUUUGA [JB39 (RNA, phosphodiester)]
Kd [4]: 248 nM

CTGCTAGCCTCTGGATTTGA [766633 (2'-MOE 5-10-5 gapmer)]
Kd ([1]; 2'-MOE at 1-5 and 16-20, DNA at 6-15, all C 5mC, 100 mM KOAc, 20 mM Tris pH 8.0, 1 mM EDTA, 0.01% NP-40, RT): > 1000 nM
Kd [2, 8]: 12.4 nM
Kd [3, 8]: 282 nM
Kd ([4]; 2'-MOE at 1-5 and 16-20, DNA at 6-15, full PS, all C 5mC): 1.6 nM
Kd [5, 8]: > 1000 nM
Kd [6, 8]: > 1000 nM

CUGCUAGCCTCTGGAUUUGA [766637 (2'-F 5-10-5 gapmer)]
Kd [1, 9]: > 1000 nM
Kd [2, 9]: 1.8 nM
Kd [3, 9]: 38.4 nM
Kd ([4]; 2'-F at 1-5 and 16-20, DNA at 6-15, full PS, 5mC at C8, C9, C11): 0.3 nM
Kd [5, 9]: 345 nM
Kd [6, 9]: 200 nM
